Here are results for two molecules from paper PMC9723622, “PARP1 proximity proteomics reveals interaction partners at stressed replication forks” (Nucleic Acids Research, 2022).

For this assay, the target named is T1, recombinant PARP1 (human, UniProt P09874 1-1014).
T1 construct: PARP1, recombinant; also called purified PARP1; source: recombinant, purified
Description: pull-down; His-GFP-TPX2 proteins immobilised on GFP-Trap beads, equimolar recombinant PARP1 added, 2 h 4°C; 20 mM Tris-HCl pH 7.5, 250 mM NaCl, 0.2% glycerol, 0.2% Triton X-100; Western blot. As to conditions: both partners purified.

T1 sequence (P09874 whole entry): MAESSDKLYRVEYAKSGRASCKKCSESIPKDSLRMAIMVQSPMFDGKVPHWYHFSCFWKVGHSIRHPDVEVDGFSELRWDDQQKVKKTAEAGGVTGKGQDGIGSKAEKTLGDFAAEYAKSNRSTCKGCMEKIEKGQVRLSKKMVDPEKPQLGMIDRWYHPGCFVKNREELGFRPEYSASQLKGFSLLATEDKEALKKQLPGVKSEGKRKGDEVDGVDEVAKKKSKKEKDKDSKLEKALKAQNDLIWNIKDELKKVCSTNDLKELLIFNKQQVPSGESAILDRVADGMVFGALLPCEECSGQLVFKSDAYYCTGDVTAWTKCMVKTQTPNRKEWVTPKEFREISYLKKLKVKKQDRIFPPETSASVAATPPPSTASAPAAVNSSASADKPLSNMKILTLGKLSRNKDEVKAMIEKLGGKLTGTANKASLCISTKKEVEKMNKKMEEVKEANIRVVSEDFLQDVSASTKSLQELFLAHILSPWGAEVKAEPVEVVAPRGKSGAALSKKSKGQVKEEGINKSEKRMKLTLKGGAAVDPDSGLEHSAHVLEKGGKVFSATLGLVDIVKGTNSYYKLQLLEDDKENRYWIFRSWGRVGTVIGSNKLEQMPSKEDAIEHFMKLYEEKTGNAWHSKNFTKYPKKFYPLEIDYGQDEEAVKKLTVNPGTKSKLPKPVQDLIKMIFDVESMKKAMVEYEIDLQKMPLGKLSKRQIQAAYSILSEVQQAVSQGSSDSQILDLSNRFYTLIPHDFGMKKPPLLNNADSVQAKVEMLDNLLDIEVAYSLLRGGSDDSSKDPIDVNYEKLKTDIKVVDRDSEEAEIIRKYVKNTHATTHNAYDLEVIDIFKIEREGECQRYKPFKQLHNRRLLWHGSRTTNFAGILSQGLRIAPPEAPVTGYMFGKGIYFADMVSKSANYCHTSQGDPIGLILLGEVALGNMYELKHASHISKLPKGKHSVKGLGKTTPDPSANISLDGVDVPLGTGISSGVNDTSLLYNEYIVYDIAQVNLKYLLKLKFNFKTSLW

B1: His-GFP-tagged TPX2 N-terminal part (1–254 amino acids), recombinant (domain or fragment, UniProt Q9ULW0 1-254, looked up)
chain: MSQVKSSYSYDAPSDFINFSSLDDEGDTQNIDSWFEEKANLENKLLGKNGTGGLFQGKTPLRKANLQQAIVTPLKPVDNTYYKEAEKENLVEQSIPSNACSSLEVEAAISRKTPAQPQRRSLRLSAQKDLEQKEKHHVKMKAKRCATPVIIDEILPSKKMKVSNNKKKPEEEGSAHQDTAEKNASSPEKAKGRHTVPCMPPAKQKFLKSTEEQELEKSMKMQQEVVEMRKKNEEFKKLALAGIGQPVKKSVSQV
notes: also called TPX2_254only; source: recombinant, purified
For B1, the binding result is “binds”.

B2: His-GFP-tagged TPX2 full-length protein (recombinant) (natural protein, UniProt Q9ULW0 1-747, looked up)
chain: MSQVKSSYSYDAPSDFINFSSLDDEGDTQNIDSWFEEKANLENKLLGKNGTGGLFQGKTPLRKANLQQAIVTPLKPVDNTYYKEAEKENLVEQSIPSNACSSLEVEAAISRKTPAQPQRRSLRLSAQKDLEQKEKHHVKMKAKRCATPVIIDEILPSKKMKVSNNKKKPEEEGSAHQDTAEKNASSPEKAKGRHTVPCMPPAKQKFLKSTEEQELEKSMKMQQEVVEMRKKNEEFKKLALAGIGQPVKKSVSQVTKSVDFHFRTDERIKQHPKNQEEYKEVNFTSELRKHPSSPARVTKGCTIVKPFNLSQGKKRTFDETVSTYVPLAQQVEDFHKRTPNRYHLRSKKDDINLLPSKSSVTKICRDPQTPVLQTKHRARAVTCKSTAELEAEELEKLQQYKFKARELDPRILEGGPILPKKPPVKPPTEPIGFDLEIEKRIQERESKKKTEDEHFEFHSRPCPTKILEDVVGVPEKKVLPITVPKSPAFALKNRIRMPTKEDEEEDEPVVIKAQPVPHYGVPFKPQIPEARTVEICPFSFDSRDKERQLQKEKKIKELQKGEVPKFKALPLPHFDTINLPEKKVKNVTQIEPFCLETDRRGALKAQTWKHQLEEELRQQKEAACFKARPNTVISQEPFVPKKEKKSVAEGLSGSLVQEPFQLATEKRAKERQELEKRMAEVEAQKAQQLEEARLQEEEQKKEELARLRRELVHKANPIRKYQGLEIKSSDQPLTVPVSPKFSTRFHC
notes: TPX2, full length; also called recombinant TPX2; full-length TPX2; source: recombinant, purified
Regarding B2, the binding result was “binds”.
